The supplement of paper PMC7877785
± gives the uncertainty stated by the source.

Assay: self-splicing fitness, log relative to wild type (ln ratio); higher = more splicing; Tetrahymena group I intron in knt gene, E. coli kanamycin selection, DiMSum; sequences stand for … in CUCUCU…GGAGGGAAAAGUUAUCAGGCAUGCACCUGGUAGCUAGUCUUUAAACCAAUAGAUUGCAUCGGUUUAAAAGGCAAGACCGUCAAAUUGCGGGAAAGGGGUCAACAGCCGUUCAGUACCAAGUCUCAGGGGAAACUUUGAGAUGGCCUUGCAAAGGGUAUGGUAAUAAGCUGACGGACAUGGUCCUAACCACGCAGCCAAGUCCUAAGUCAACAGAUCUUCUGUUGAUAUGGAUGCAGUUCACAGACUAAAUGUCGGUCGGGGAAGAUGUAUUCUUCUCAUAAGAUAUAGUCGGACCUCUCCUUAAUGGGAGCUAGCGGAUGAAGUGAUGCAACACUGGAGCCGCUGGGAACUAAUUUGUAUGCGAAAGUAUAUUGAUUAGUUUUGGAGUACUCGUGGUCG
Method in brief: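 A randomised library covering all eight P1ex-region intron nucleotides was built with the intron in the knt kanamycin-resistance gene on pET-22b(+) and held in E. coli BL21(DE3). Cells were grown overnight at 37°C or 30°C on LB agar, with or without 25 μg/mL kanamycin, plus 100 μg/mL carbenicillin, 50 μM IPTG and 0.2% rhamnose, and pooled colonies were amplicon-sequenced on an Illumina HiSeq 2500. DiMSum fitness is the error-weighted combination of wild-type-normalised replicate fold changes, kanamycin versus none.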

Row | Sequence | self-splicing fitness (ln) (30 °C) | self-splicing fitness (ln) (37 °C)
1 | CGCUAGCAAUAUUACGUAGC | -3.14 ± 0.31 | -1.68 ± 0.37
2 | CGCUAGCAAUAUUACGUCAA | -3.88 ± 0.23 | -3.07 ± 0.23
3 | CGCUAGCAAUAUUACGUCUA | -2.47 ± 0.22 | -1.59 ± 0.34
4 | CGCUAGCAAUAUUACGUGGG | -3.6 ± 0.17 | -2.74 ± 0.21
5 | CGCUAGCAAUAUUACGUUAC | -3.23 ± 0.31 | 
6 | CGGAAGCAAUAUUACGACCA | 0.623 ± 0.2 | -0.13 ± 0.27
7 | CGGAAGCAAUAUUACGACGA | -1.75 ± 0.21 | -0.502 ± 0.15
8 | CGGAAGCAAUAUUACGACUG | -2.02 ± 0.28 | -1.12 ± 0.23
9 | CGGAAGCAAUAUUACGAGCG | -1.14 ± 0.098 | -1.11 ± 0.095
10 | CGGAAGCAAUAUUACGAUAA |  | -1.52 ± 0.25
11 | CGGAAGCAAUAUUACGCACA | -1.07 ± 0.15 | 0.386 ± 0.16
12 | CGGAAGCAAUAUUACGCCAC | -3.64 ± 0.18 | -2.78 ± 0.26
13 | CGGAAGCAAUAUUACGCGAU | -3.28 ± 0.28 | -2.05 ± 0.33
14 | CGGAAGCAAUAUUACGGAUU | -4.05 ± 0.2 | -2.36 ± 0.13
15 | CGGAAGCAAUAUUACGGGAG | -2.37 ± 0.1 | -2.02 ± 0.17
16 | CGGAAGCAAUAUUACGGGCU | -3.27 ± 0.18 | -3.3 ± 0.25
17 | CGGAAGCAAUAUUACGUCUG | -3.74 ± 0.2 | -2.46 ± 0.19
18 | CGGAAGCAAUAUUACGUGUG | -1.38 ± 0.051 | -0.291 ± 0.067
19 | CGGAAGCAAUAUUACGUUUG | -1.9 ± 0.071 | -1.35 ± 0.089
20 | CGGCAGCAAUAUUACGACUG | -1.74 ± 0.24 | -0.611 ± 0.26
21 | CGGCAGCAAUAUUACGAGGA | -4.01 ± 0.43 | -2.28 ± 0.26
22 | CGGCAGCAAUAUUACGCACG | -2.17 ± 0.15 | -2.1 ± 0.23
23 | CGGCAGCAAUAUUACGCAGA | -3.27 ± 0.31 | -2.48 ± 0.22
24 | CGGCAGCAAUAUUACGCCAC | -2.97 ± 0.23 | -1.52 ± 0.3
25 | CGGCAGCAAUAUUACGCCAG | -1.53 ± 0.21 | 
26 | CGGCAGCAAUAUUACGCCCC | -1.66 ± 0.31 | -0.44 ± 0.36
27 | CGGCAGCAAUAUUACGCCUC | -3.4 ± 0.27 | -1.59 ± 0.25

Row | Sequence | self-splicing fitness (ln) (30 °C) | self-splicing fitness (ln) (37 °C)
28 | CGGCAGCAAUAUUACGCGAA | -2.67 ± 0.13 | -1.68 ± 0.15
29 | CGGCAGCAAUAUUACGCGAC | -4.41 ± 0.42 | -1.36 ± 0.18
30 | CGGCAGCAAUAUUACGCUUC |  | -1.56 ± 0.29
31 | CGGCAGCAAUAUUACGGGAG | -2.36 ± 0.15 | -1.77 ± 0.18
32 | CGGCAGCAAUAUUACGGGAU | -3.24 ± 0.18 | -2.38 ± 0.23
33 | CGGCAGCAAUAUUACGGGUC | -2.95 ± 0.21 | -1.74 ± 0.22
34 | CGGCAGCAAUAUUACGGUCG | -3.51 ± 0.27 | -2.94 ± 0.33
35 | CGGCAGCAAUAUUACGUAGC | -4.16 ± 0.36 | -3.03 ± 0.24
36 | CGGCAGCAAUAUUACGUCAA | -1.53 ± 0.11 | -1.43 ± 0.13
37 | CGGCAGCAAUAUUACGUCAU | -2.83 ± 0.12 | -1.09 ± 0.092
38 | CGGCAGCAAUAUUACGUGCA | -1.03 ± 0.27 | -0.293 ± 0.23
39 | CGGCAGCAAUAUUACGUGGU | -4.44 ± 0.25 | -1.93 ± 0.12
40 | CGGCAGCAAUAUUACGUUAA | -2.44 ± 0.16 | -1.1 ± 0.11
41 | CGGCAGCAAUAUUACGUUAG | -0.86 ± 0.057 | 0.0318 ± 0.078
42 | CGGGAGCAAUAUUACGAAAG | -2.47 ± 0.42 | -2.55 ± 0.42
43 | CGGGAGCAAUAUUACGACAU | -4.013 ± 0.038 | -2.67 ± 0.046
44 | CGGGAGCAAUAUUACGACGA | -1.82 ± 0.36 | 
45 | CGGGAGCAAUAUUACGAGCA | -3 ± 0.19 | -3.2 ± 0.31
46 | CGGGAGCAAUAUUACGCCAC | -3.63 ± 0.29 | -2.63 ± 0.41
47 | CGGGAGCAAUAUUACGCGAC | -3.85 ± 0.29 | -1.59 ± 0.36
48 | CGGGAGCAAUAUUACGCGGU |  | -1.72 ± 0.29
49 | CGGGAGCAAUAUUACGCUUU |  | -0.957 ± 0.27
50 | CGGGAGCAAUAUUACGGCAC | -3.74 ± 0.28 | -1.62 ± 0.23
51 | CGGGAGCAAUAUUACGGGAG | -2.76 ± 0.22 | -2.44 ± 0.3
52 | CGGGAGCAAUAUUACGGGGG | -2.37 ± 0.3 | 
53 | CGGGAGCAAUAUUACGGUAG | -3.73 ± 0.29 | -2 ± 0.27
54 | CGGGAGCAAUAUUACGGUUG | -1.89 ± 0.44 | 

Row | Sequence | self-splicing fitness (ln) (30 °C) | self-splicing fitness (ln) (37 °C)
55 | CGGGAGCAAUAUUACGUAGC | -2.26 ± 0.32 | -1.05 ± 0.22
56 | CGGGAGCAAUAUUACGUAUC | -2.58 ± 0.49 | 
57 | CGGGAGCAAUAUUACGUCAA | -2.14 ± 0.19 | -2.79 ± 0.38
58 | CGGGAGCAAUAUUACGUCUU |  | -0.499 ± 0.36
59 | CGGGAGCAAUAUUACGUUGU | -4.45 ± 0.29 | -2.65 ± 0.26
60 | CGGUAGCAAUAUUACGAACC |  | -1.2 ± 0.31
61 | CGGUAGCAAUAUUACGAAUG | -0.573 ± 0.076 | 0.205 ± 0.097
62 | CGGUAGCAAUAUUACGACAU | -2.405 ± 0.019 | -1.38 ± 0.035
63 | CGGUAGCAAUAUUACGACCG | -2.88 ± 0.36 | -2.07 ± 0.42
64 | CGGUAGCAAUAUUACGACUG | -2.54 ± 0.28 | -1.86 ± 0.32
65 | CGGUAGCAAUAUUACGAGUU | -3.87 ± 0.36 | -3.26 ± 0.27
66 | CGGUAGCAAUAUUACGAUGA | -1.38 ± 0.13 | -0.66 ± 0.16
67 | CGGUAGCAAUAUUACGCAUA | -4.37 ± 0.42 | -2.34 ± 0.26
68 | CGGUAGCAAUAUUACGCUGG | -0.433 ± 0.13 | -0.681 ± 0.15
69 | CGGUAGCAAUAUUACGGAUU | -2.63 ± 0.36 | -2.23 ± 0.34
70 | CGGUAGCAAUAUUACGGCCU | -0.555 ± 0.12 | -0.911 ± 0.12
71 | CGGUAGCAAUAUUACGGCUC | -1.15 ± 0.079 | -0.532 ± 0.11
72 | CGGUAGCAAUAUUACGGGAG | -3.22 ± 0.17 | -1.71 ± 0.14
73 | CGGUAGCAAUAUUACGGGAU | -3.86 ± 0.47 | 
74 | CGGUAGCAAUAUUACGGGUG | -0.483 ± 0.068 | 0.146 ± 0.077
75 | CGGUAGCAAUAUUACGGUCU | -0.673 ± 0.068 | -0.251 ± 0.093
76 | CGGUAGCAAUAUUACGGUGC | -2.22 ± 0.27 | -2.48 ± 0.38
77 | CGGUAGCAAUAUUACGGUGG | -0.519 ± 0.092 | -0.124 ± 0.12
78 | CGGUAGCAAUAUUACGUAAA | -1.14 ± 0.08 | -2.33 ± 0.17
79 | CGGUAGCAAUAUUACGUAUU | -2 ± 0.32 | -2.16 ± 0.27
80 | CGGUAGCAAUAUUACGUCGG | -0.5 ± 0.095 | 0.638 ± 0.12
